{"source": "paper PMC11081419", "target": "CCL18 (human) (UniProt P55774)", "sequence (P55774 21-89)": "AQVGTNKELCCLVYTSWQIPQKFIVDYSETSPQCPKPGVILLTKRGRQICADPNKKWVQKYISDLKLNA", "assay": "SPR", "conditions": "domain or fragment"}
{"substance": "EVA‐ACA1001(ΔN) (from UniProt A0A023FFD0)", "values": [{"measurement": "Kd", "value": "< 100", "unit": "pM"}]}
